Results as given in the supplement of paper PMC11136658.

Test system: peptide library, one residue held at a place counted from the Y acceptor
Assay: relative phosphorylation of the sub-library (ratio to the mean residue at this position); higher = residue favoured
Method in brief: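 Biotinylated Tyr-centred peptide library mixtures, each fixing one residue at one position from −5 to +5, were incubated with purified recombinant kinases in 384-well plates for 90 min with 50 μM ATP plus γ-32P-ATP. Streptavidin membranes captured the peptides, which were rinsed and quantified by phosphorimaging and ImageQuant. At each position, intensities were divided by the sum of the 18 randomized residues (16 for the Ser/Thr-free library) and multiplied by that number. Each value is phosphorylation relative to the mean randomized residue.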

Sequence of BMX, construct: Full length, human (P51813 whole entry, looked up): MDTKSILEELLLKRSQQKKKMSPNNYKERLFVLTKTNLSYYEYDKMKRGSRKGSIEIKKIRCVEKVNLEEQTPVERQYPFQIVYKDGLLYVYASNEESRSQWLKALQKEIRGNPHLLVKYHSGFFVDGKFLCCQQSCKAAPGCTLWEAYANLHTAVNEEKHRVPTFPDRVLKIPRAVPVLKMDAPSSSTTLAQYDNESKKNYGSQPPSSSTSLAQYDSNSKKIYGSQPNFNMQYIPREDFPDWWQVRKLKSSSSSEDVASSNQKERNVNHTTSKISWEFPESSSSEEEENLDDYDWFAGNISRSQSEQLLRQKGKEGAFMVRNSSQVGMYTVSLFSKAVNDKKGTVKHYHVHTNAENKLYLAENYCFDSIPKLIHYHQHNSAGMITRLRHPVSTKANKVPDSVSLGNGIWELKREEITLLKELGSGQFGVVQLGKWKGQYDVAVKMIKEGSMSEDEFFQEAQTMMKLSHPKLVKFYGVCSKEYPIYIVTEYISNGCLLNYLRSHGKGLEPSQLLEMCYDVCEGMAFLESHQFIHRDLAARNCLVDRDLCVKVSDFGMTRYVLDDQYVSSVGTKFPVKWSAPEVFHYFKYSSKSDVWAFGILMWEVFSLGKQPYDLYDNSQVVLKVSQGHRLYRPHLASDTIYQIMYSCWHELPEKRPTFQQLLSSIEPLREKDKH

BMX, construct: Full length, human (from UniProt P51813)
relative phosphorylation
Details | at +1 | at +2 | at +3 | at +4 | at +5 | at -1 | at -2 | at -3 | at -4 | at -5
A fixed | 1.73 | 1.01 | 0.847 | 0.846 | 0.939 | 0.521 | 1.05 | 0.992 | 1.04 | 1.05
D fixed | 0.82 | 0.761 | 0.324 | 0.746 | 0.903 | 0.726 | 1.43 | 1.48 | 1.31 | 1.11
E fixed | 1.85 | 1.27 | 0.292 | 0.959 | 0.958 | 0.812 | 1.5 | 1.56 | 1.43 | 1.03
F fixed | 0.504 | 1.02 | 1.53 | 0.876 | 1.11 | 1.13 | 0.558 | 1.12 | 0.855 | 0.993
G fixed | 0.807 | 0.605 | 0.799 | 1.11 | 1.08 | 0.293 | 1.18 | 0.958 | 1.33 | 1.13
H fixed | 0.451 | 0.611 | 2.04 | 1.1 | 1.01 | 0.643 | 0.912 | 0.864 | 0.866 | 0.921
I fixed | 1.61 | 1.08 | 1.25 | 0.722 | 0.764 | 3.28 | 0.744 | 0.636 | 0.845 | 0.855
K fixed | 0.251 | 0.768 | 0.639 | 0.881 | 0.914 | 0.281 | 0.792 | 0.672 | 0.898 | 1.03
L fixed | 0.714 | 1 | 1.1 | 0.849 | 0.762 | 3.33 | 0.799 | 0.704 | 0.884 | 1.02
M fixed | 1.28 | 0.979 | 1.15 | 1.06 | 1.04 | 1.24 | 0.71 | 0.805 | 0.958 | 0.938
N fixed | 0.44 | 0.919 | 0.558 | 0.784 | 0.99 | 0.567 | 1.27 | 1.39 | 1.03 | 1.15
P fixed | 0.166 | 0.873 | 0.569 | 1.12 | 1.3 | 0.5 | 1.38 | 1.13 | 1.27 | 1.19
Q fixed | 1.26 | 1.02 | 1.09 | 1.19 | 0.953 | 0.652 | 1.3 | 1.08 | 1.26 | 1.1
R fixed | 0.332 | 0.919 | 1.47 | 1.27 | 1.2 | 0.298 | 0.81 | 0.823 | 0.987 | 1.06
S fixed | 1.38 | 1.27 | 0.866 | 0.935 | 1.1 | 0.475 | 1.18 | 1.08 | 0.797 | 0.923
T fixed | 1.39 | 1.35 | 0.704 | 0.936 | 1.02 | 1.1 | 1.03 | 0.909 | 0.724 | 0.787
V fixed | 1.74 | 1.42 | 1.24 | 0.898 | 0.788 | 1.64 | 0.866 | 0.792 | 0.738 | 0.867
W fixed | 1.28 | 1.11 | 1.53 | 1.73 | 1.16 | 0.501 | 0.493 | 0.987 | 0.777 | 0.868
pThr fixed | 2.3 | 2.57 | 0.296 | 0.734 | 0.603 | 2.21 | 1.19 | 1.25 | 1.09 | 0.986
pTyr fixed | 1.29 | 2.49 | 0.504 | 0.852 | 0.858 | 9.03 | 1.27 | 1.46 | 1.22 | 1.05
